From patent US20100129369A1 (Eli Lilly, published 2010)
One block for each binder: values may come before it.

Experiments:
human c-Met [1] = target: T1, human c-Met (human, UniProt P08581 25-1390); experiment: cell-based or functional assay
T1 sequence (P08581 25-1390): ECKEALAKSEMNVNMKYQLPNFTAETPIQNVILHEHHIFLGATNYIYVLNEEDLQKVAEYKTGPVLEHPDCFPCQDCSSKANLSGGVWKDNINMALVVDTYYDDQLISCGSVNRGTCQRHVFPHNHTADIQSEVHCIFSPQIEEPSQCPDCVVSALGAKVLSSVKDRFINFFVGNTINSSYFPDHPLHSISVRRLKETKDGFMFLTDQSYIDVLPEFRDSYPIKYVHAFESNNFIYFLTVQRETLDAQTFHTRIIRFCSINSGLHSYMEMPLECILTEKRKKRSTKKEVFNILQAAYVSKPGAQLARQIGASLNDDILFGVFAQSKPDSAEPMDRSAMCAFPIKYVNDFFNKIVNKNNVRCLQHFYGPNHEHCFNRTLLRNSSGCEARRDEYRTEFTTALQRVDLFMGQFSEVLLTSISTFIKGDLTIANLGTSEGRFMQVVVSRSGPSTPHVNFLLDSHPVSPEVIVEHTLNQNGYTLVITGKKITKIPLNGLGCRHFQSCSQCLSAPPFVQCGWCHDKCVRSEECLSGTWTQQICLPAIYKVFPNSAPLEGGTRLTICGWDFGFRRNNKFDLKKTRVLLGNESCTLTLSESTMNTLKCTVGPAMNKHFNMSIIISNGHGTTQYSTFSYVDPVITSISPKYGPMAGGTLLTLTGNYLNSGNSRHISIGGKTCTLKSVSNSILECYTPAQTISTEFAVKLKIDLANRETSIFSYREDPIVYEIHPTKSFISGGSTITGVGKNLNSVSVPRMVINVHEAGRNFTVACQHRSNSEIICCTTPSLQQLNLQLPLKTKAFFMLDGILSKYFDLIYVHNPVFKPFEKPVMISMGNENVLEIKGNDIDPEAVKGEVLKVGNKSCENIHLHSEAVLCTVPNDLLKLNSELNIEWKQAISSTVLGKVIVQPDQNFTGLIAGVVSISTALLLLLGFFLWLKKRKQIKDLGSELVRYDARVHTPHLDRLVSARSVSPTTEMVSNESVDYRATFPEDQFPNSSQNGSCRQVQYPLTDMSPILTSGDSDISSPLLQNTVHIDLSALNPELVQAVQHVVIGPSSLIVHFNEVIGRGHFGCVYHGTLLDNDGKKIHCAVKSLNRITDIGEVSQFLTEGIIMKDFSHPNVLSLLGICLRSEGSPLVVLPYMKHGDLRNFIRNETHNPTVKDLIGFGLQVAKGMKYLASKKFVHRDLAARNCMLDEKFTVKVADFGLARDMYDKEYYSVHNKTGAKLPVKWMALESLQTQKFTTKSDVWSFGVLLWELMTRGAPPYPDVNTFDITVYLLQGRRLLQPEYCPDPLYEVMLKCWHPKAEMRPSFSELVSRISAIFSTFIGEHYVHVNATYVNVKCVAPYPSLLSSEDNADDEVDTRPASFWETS

human c-Met [2] = target: T1, human c-Met; experiment: cell-based or functional assay; remark: listed apart in the source
human c-Met [3] = target: T1, human c-Met; experiment: cell-based or functional assay; remark: listed apart in the source
human c-Met ECD-Fc-Flis [4] = target: T2, human c-Met ECD-Fc-Flis (human); experiment: HGF-blocking ELISA: HGF signal on coated c-Met ECD-Fc-Flis; Ab 0.48 ng/mL
T2 construct: c-Met ECD fused to Fc with flag- and His-tag at the C-terminus; also called human c-Met extracellular domain (ECD)-Fc-Flis fusion; human c-Met-Flis-Fc ECD
Description: (§1) Wells of 96-well EIA/RIA high binding plates (Costar, #2592) are coated with 100 μL of human c-Met ECD-Fc-Flis (SEQ ID NO:72) (2 μg/mL) in Dulbecco's phosphate buffered saline (DPBS) overnight at room temperature; washed four times with wash buffer (Tris-buffered saline, pH 8.0, with 0.05% (v/v) polysorbate 20 (TWEEN®-20) (TBS-T) (BioFX Labs, # WSHW-1000-01) in a plate washer; blocked by adding 300 μL of blocking buffer (TBS-T plus 1% (w/v) bovine serum albumin (BSA) (Jackson Immuno, #001-000-162); and incubating for 60 min. at 37° C. Blocking buffer is then removed from the wells and 50 μL of antibodies in blocking buffer at final concentrations as indicated in Table 7 are added into each well, respectively. […] The plates with c-Met antibodies are incubated for 90 min. at 37° C. […] The wells are then washed four times with TBS-T in a plate washer. […] The plates are incubated for 90 min. at room temperature. The wells are again washed four times with TBS-T in a plate washer. 100 μL of a 1:200 dilution of streptavidin-horseradish peroxidase (HRP) (R&D Systems, DY998) in blocking buffer are added to each well. The plates are incubated for 30 min. at room temperature. The wells are washed four times with TBS-T in a plate washer. 100 μL/well of substrate solution (BioFx, #TMBW-1000-01) are then added, and the plates are incubated for 10 min. at room temperature. To stop the reaction, 100 μL/well of stop solution (BioFx, # LSTP-1000-01) are added. The samples are read at a wavelength of 450-570 nm on a microplate reader (Spectra, MAX 190) and no background is subtracted.

human c-Met ECD-Fc-Flis [5] = target: T2, human c-Met ECD-Fc-Flis; experiment: HGF-blocking ELISA: HGF signal on coated c-Met ECD-Fc-Flis; Ab 1.91 ng/mL
Description: as §1

human c-Met ECD-Fc-Flis [6] = target: T2, human c-Met ECD-Fc-Flis; experiment: HGF-blocking ELISA: HGF signal on coated c-Met ECD-Fc-Flis; Ab 7.63 ng/mL
Description: as §1

human c-Met ECD-Fc-Flis [7] = target: T2, human c-Met ECD-Fc-Flis; experiment: HGF-blocking ELISA: HGF signal on coated c-Met ECD-Fc-Flis; Ab 30.52 ng/mL
Description: as §1

human c-Met ECD-Fc-Flis [8] = target: T2, human c-Met ECD-Fc-Flis; experiment: HGF-blocking ELISA: HGF signal on coated c-Met ECD-Fc-Flis; Ab 122.07 ng/mL
Description: as §1

human c-Met ECD-Fc-Flis [9] = target: T2, human c-Met ECD-Fc-Flis; experiment: HGF-blocking ELISA: HGF signal on coated c-Met ECD-Fc-Flis; Ab 488.28 ng/mL
Description: as §1

human c-Met ECD-Fc-Flis [10] = target: T2, human c-Met ECD-Fc-Flis; experiment: HGF-blocking ELISA: HGF signal on coated c-Met ECD-Fc-Flis; Ab 1953.13 ng/mL
Description: as §1

human c-Met ECD-Fc-Flis [11] = target: T2, human c-Met ECD-Fc-Flis; experiment: HGF-blocking ELISA: HGF signal on coated c-Met ECD-Fc-Flis; Ab 7812.50 ng/mL
Description: as §1

human c-Met ECD-Fc-Flis [12] = target: T2, human c-Met ECD-Fc-Flis; experiment: HGF-blocking ELISA: HGF signal on coated c-Met ECD-Fc-Flis; Ab 31250.00 ng/mL
Description: as §1

human c-Met ECD-Fc-Flis [13] = target: T2, human c-Met ECD-Fc-Flis; experiment: HGF-blocking ELISA: HGF signal on coated c-Met ECD-Fc-Flis; Ab 125000.00 ng/mL
Description: as §1

human c-Met ECD-Fc-Flis [14] = target: T2, human c-Met ECD-Fc-Flis; experiment: HGF-blocking ELISA: HGF signal on coated c-Met ECD-Fc-Flis; Ab 0.00 ng/mL (HGF only)
Description: as §1

human c-Met [15] = target: T3, human c-Met (human, UniProt P08581 25-1390); experiment: cell-based or functional assay; remark: listed apart in the source
T3 sequence (P08581 25-1390): as above

human c-Met [16] = target: T3, human c-Met; experiment: cell-based or functional assay; remark: listed apart in the source
human c-Met [17] = target: T3, human c-Met; experiment: cell-based or functional assay; remark: listed apart in the source

T2 sequence (chain, as listed by the source): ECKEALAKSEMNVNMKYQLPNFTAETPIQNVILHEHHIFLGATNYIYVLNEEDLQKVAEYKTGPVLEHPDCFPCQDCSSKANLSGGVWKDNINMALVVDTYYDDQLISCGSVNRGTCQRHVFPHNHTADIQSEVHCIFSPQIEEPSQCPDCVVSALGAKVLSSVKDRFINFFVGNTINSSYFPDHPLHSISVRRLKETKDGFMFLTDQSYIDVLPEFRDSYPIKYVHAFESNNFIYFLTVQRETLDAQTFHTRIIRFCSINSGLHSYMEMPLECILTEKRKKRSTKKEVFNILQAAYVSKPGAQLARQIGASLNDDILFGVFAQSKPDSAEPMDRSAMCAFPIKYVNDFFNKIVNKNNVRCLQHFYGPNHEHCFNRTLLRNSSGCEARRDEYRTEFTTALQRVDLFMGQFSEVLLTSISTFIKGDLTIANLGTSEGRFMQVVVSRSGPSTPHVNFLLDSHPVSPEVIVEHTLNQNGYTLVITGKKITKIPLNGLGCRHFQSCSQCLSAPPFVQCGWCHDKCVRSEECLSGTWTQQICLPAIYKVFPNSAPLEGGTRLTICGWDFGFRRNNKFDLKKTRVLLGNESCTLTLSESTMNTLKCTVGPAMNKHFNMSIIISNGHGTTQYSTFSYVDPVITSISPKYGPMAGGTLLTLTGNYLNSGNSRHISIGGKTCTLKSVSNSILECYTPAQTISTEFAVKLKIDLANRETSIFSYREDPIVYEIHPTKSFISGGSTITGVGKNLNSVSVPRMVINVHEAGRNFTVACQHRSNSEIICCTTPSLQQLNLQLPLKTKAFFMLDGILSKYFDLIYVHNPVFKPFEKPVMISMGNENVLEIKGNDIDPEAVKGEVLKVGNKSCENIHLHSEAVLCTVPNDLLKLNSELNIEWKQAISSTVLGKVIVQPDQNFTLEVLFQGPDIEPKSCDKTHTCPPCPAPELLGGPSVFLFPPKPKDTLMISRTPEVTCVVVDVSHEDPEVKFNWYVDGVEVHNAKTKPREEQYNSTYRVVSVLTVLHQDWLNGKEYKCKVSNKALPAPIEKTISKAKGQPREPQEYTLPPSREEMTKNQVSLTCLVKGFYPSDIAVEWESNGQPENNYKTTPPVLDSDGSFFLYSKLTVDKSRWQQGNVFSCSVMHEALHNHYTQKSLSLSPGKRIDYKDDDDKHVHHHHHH

- % inhibition of HGF stimulated phospho-Met (ELISA, HCT116 cells), Ab 0.0032 µg/mL (human c-Met [1]): -10.7%
- % inhibition of HGF stimulated phospho-Met (ELISA, HCT116 cells), Ab 0.016 µg/mL (human c-Met [1]): -2.89%
- % inhibition of HGF stimulated phospho-Met (ELISA, HCT116 cells), Ab 0.08 µg/mL (human c-Met [1]): 9.77%
- % inhibition of HGF stimulated phospho-Met (ELISA, HCT116 cells), Ab 0.4 µg/mL (human c-Met [1]): 45.1%
- % inhibition of HGF stimulated phospho-Met (ELISA, HCT116 cells), Ab 2 µg/mL (human c-Met [1]): 59%
- % inhibition of HGF stimulated phospho-Met (ELISA, HCT116 cells), Ab 10 µg/mL (human c-Met [1]): 65.4%
- Mean Fluorescence (c-Met left on the surface of MKN45 cells, FACS), Ab 5.00 ug/mL (human c-Met [2]): 56.2
- AVG CPM, 3H-thymidine incorporation in MKN45 cells, Ab 0.0 ng/mL (no antibody) (human c-Met [3]): 51500 CPM
- AVG CPM, 3H-thymidine incorporation in MKN45 cells, Ab 0.1 ng/mL (human c-Met [3]): 45700 CPM
- AVG CPM, 3H-thymidine incorporation in MKN45 cells, Ab 0.4 ng/mL (human c-Met [3]): 47500 CPM
- AVG CPM, 3H-thymidine incorporation in MKN45 cells, Ab 2.6 ng/mL (human c-Met [3]): 53500 CPM
- AVG CPM, 3H-thymidine incorporation in MKN45 cells, Ab 15.4 ng/mL (human c-Met [3]): 22500 CPM
- AVG CPM, 3H-thymidine incorporation in MKN45 cells, Ab 92.6 ng/mL (human c-Met [3]): 12400 CPM
- AVG CPM, 3H-thymidine incorporation in MKN45 cells, Ab 555.6 ng/mL (human c-Met [3]): 13500 CPM
- AVG CPM, 3H-thymidine incorporation in MKN45 cells, Ab 3333.3 ng/mL (human c-Met [3]): 13000 CPM
- AVG CPM, 3H-thymidine incorporation in MKN45 cells, Ab 20000.0 ng/mL (human c-Met [3]): 11700 CPM
- AVG A450 nm (human c-Met ECD-Fc-Flis [4]): 2.05 A450 nm
- AVG A450 nm (human c-Met ECD-Fc-Flis [5]): 2.18 A450 nm
- AVG A450 nm (human c-Met ECD-Fc-Flis [6]): 2.2 A450 nm
- AVG A450 nm (human c-Met ECD-Fc-Flis [7]): 2.08 A450 nm
- AVG A450 nm (human c-Met ECD-Fc-Flis [8]): 1.3 A450 nm
- AVG A450 nm (human c-Met ECD-Fc-Flis [9]): 0.7 A450 nm
- AVG A450 nm (human c-Met ECD-Fc-Flis [10]): 0.6 A450 nm
- AVG A450 nm (human c-Met ECD-Fc-Flis [11]): 0.57 A450 nm
- AVG A450 nm (human c-Met ECD-Fc-Flis [12]): 0.56 A450 nm
- AVG A450 nm (human c-Met ECD-Fc-Flis [13]): 0.38 A450 nm
- AVG A450 nm (human c-Met ECD-Fc-Flis [14]): 2.61 A450 nm
B1: C8-co-16 (antibody, human IgG2, kappa, V domains shown)
VH: QVQLVQSGAEVKKPGASVKVSCKASGYTFTDYYMHWVRQAPGQGLEWMGRVNPYRGSTTYNQKFEGRVTMTTDTSTSTAYMELRSLRSDDTAVYYCARANILDYWGQGTTVTVSS
VL: DIQMTQSPSSLSASVGDRVTITCSVSSSVRSIYLHWYQQKPGKAPKLLIYSTSNLASGVPSRFSGSGSGTDFTLTISSLQPEDFATYYCQVYRGYPLTFGGGTKVEIKR
notes: Named IgG4 kappa; also called C8-co-16 IgG4

- 3H-Thymidine Incorporation in Caki-1 Cells in the Absence of HGF (AVG CPM), antibody dose 0.1 ng/mL (human c-Met [15]): 15600 CPM
- 3H-Thymidine Incorporation in Caki-1 Cells in the Absence of HGF (AVG CPM), antibody dose 0.4 ng/mL (human c-Met [15]): 14100 CPM
- 3H-Thymidine Incorporation in Caki-1 Cells in the Absence of HGF (AVG CPM), antibody dose 2.6 ng/mL (human c-Met [15]): 13700 CPM
- 3H-Thymidine Incorporation in Caki-1 Cells in the Absence of HGF (AVG CPM), antibody dose 15.4 ng/mL (human c-Met [15]): 12100 CPM
- 3H-Thymidine Incorporation in Caki-1 Cells in the Absence of HGF (AVG CPM), antibody dose 92.6 ng/mL (human c-Met [15]): 11600 CPM
- 3H-Thymidine Incorporation in Caki-1 Cells in the Absence of HGF (AVG CPM), antibody dose 555.6 ng/mL (human c-Met [15]): 11400 CPM
- 3H-Thymidine Incorporation in Caki-1 Cells in the Absence of HGF (AVG CPM), antibody dose 3333.3 ng/mL (human c-Met [15]): 13800 CPM
- 3H-Thymidine Incorporation in Caki-1 Cells in the Absence of HGF (AVG CPM), antibody dose 20000.0 ng/mL (human c-Met [15]): 13100 CPM
- 3H-Thymidine Incorporation in Primary Human Hepatocytes in the Absence of HGF (average), dose 0.0032 ug/mL (human c-Met [16]): 829
- 3H-Thymidine Incorporation in Primary Human Hepatocytes in the Absence of HGF (average), dose 0.016 ug/mL (human c-Met [16]): 716
- 3H-Thymidine Incorporation in Primary Human Hepatocytes in the Absence of HGF (average), dose 0.08 ug/mL (human c-Met [16]): 767
- 3H-Thymidine Incorporation in Primary Human Hepatocytes in the Absence of HGF (average), dose 0.4 ug/mL (human c-Met [16]): 670
- 3H-Thymidine Incorporation in Primary Human Hepatocytes in the Absence of HGF (average), dose 2 ug/mL (human c-Met [16]): 822
- 3H-Thymidine Incorporation in Primary Human Hepatocytes in the Absence of HGF (average), dose 10 ug/mL (human c-Met [16]): 952
- Percent of DU145 Cells in Colonies (scatter assay), antibody 20 ug/mL (human c-Met [17]): 23.7%
B2: C8-co-16 (antibody, human IgG2, kappa, V domains shown)
VH: B1 VH
VL: B1 VL
